The target in one data set is T1, HS-T4 DNA ligase (Enterobacteria phage T4, UniProt P00970 P00970:1-487).
T1 chain: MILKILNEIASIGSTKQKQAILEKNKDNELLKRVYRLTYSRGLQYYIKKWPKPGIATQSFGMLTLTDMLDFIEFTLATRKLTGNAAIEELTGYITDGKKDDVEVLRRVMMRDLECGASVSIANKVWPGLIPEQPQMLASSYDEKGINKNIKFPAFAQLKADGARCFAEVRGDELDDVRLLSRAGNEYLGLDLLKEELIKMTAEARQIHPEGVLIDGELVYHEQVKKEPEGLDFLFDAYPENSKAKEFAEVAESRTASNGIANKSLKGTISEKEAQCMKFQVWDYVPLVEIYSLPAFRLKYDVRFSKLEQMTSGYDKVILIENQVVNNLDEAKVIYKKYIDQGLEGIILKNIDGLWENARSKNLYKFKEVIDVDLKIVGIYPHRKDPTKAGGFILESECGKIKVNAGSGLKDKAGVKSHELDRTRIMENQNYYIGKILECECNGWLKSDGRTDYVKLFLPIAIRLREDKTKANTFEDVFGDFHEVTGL
Briefly: ligation gel assay to SEQ 3 adaptor; agarose-immobilized form retains activity after 60-100 C, soluble form does not. The conditions noted are these: tags: SNAP-tag fusion, soluble or immobilized on BG-agarose. The method, then:
(§1) A FAM-labeled DNA duplex was formed by annealing synthetic oligomer, Gene32FAM-fw3′A, /56-FAMN/CA TGGTGATTACGATTCTTGCCCAGTATGTCAATACATCAGTAAAAATA (SEQ ID NO:1) and Gene32-rv5′p, /5Phos/AT TTTTACTGATGTATTGACATACTGGGCAAGAATCGTAATCAC CATG (SEQ ID NO:2).
(§2) For heat treatment, an aliquot of 15.83 μL from an enzyme master mixture was incubated at 4, 40, 60, 80, 90, 95 or 100° C. for 10 min, followed by addition of 9.17 μL of the DNA substrate mixture. All the ligation reactions were carried out at 4° C. overnight in a shaker. The samples were analyzed by electrophoresis on a 12% Tris-Glycine PAGE (Novex/Invitrogen) in 1×TAE Buffer for 2.5 hours at 25 mA (current). […] In contrast, HS-T4 DNA Ligase immobilized to BG-Agarose beads retained enzymatic activity after treatment in the same range of elevated temperature tested.

The target of the next data set is T2, T4 DNA ligase (Enterobacteria phage T4, UniProt P00970 P00970:1-487).
T2 sequence: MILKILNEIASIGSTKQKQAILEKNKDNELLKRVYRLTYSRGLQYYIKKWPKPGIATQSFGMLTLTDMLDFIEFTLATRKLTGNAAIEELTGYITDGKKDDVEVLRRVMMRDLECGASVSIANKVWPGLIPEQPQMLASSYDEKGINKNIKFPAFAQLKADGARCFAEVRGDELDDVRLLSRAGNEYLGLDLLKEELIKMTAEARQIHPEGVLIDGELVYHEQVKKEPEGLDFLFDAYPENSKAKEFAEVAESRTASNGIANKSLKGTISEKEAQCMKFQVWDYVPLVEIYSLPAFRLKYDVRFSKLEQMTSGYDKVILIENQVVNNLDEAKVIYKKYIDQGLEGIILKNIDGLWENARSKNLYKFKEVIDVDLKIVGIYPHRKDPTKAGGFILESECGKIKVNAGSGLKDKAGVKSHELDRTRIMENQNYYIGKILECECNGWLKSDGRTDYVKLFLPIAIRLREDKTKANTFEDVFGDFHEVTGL
Briefly: ligation gel assay to SEQ 3 adaptor, 4 C; no activity after 60-100 C pretreatment. The conditions noted are these: tags: untagged, NEB M0202. As to the method: as §1, §2

B1: Gene32 FAM duplex + TA adaptor (dsDNA)
DNA 1: CATGGTGATTACGATTCTTGCCCAGTATGTCAATACATCAGTAAAAATA
DNA 2: ATTTTTACTGATGTATTGACATACTGGGCAAGAATCGTAATCACCATG
modifications: 5'-phosphate on SEQ 2
Turning to B1, the binding result with HS-T4 DNA ligase and with T4 DNA ligase was “binds” in each case.
